The values below come from publication doi:10.1101/477745.

The target of this assay is Era fused to SB (small bit of luciferase) (S. aureus) (UniProt Q2FGF6). Nature of the assay: split reporter.
Sequence of Era fused to SB (small bit of luciferase) (S. aureus) (Q2FGF6 whole entry, the tested form may be a part): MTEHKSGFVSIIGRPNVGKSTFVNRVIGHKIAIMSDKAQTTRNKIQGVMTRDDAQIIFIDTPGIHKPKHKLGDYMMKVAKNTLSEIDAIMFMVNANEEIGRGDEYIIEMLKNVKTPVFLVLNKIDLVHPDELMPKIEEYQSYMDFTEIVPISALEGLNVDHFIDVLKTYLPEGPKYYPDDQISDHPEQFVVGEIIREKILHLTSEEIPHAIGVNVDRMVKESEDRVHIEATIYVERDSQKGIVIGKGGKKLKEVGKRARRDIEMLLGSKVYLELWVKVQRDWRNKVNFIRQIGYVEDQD

Sequence of YbeY (split luciferase fusion) (natural protein) (A5IT98 whole entry, the tested form may be a part): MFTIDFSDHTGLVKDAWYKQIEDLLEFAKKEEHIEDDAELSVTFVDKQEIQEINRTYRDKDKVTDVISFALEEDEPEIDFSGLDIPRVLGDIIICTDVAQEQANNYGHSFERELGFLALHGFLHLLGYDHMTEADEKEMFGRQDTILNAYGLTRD

Regarding “YbeY (split luciferase fusion) (natural protein)”, the luminescence relative to the control (x above the control) is 2.
